In the DeepSol protein solubility set:

assay: soluble on expression in E. coli; label from the status in PepcDB or PDB records

Sequence | soluble on expression in E. coli
MAKTLYEKLFDSHIVYEAEGETPILYINRHLIHEVTSPQAFDGLRVANRQVRQVNKTFGTMDHSISTQVRDVNKLEGQAKIQVLELDKNTKATGIKLFDITTKEQGIVHVMGPEQGLTLPGMTIVCGDSHTATHGAFGALAFGIGTSEVEHVLATQTLKQARAKSMKIEVRGKVASGITAKDIILAIIGKTTMAGGTGHVVEFCGEAIQDLSMEGRMTVCNMAIEMGAKAGLIAPDETTFAYLKDRPHAPKGKDWEDAVAYWKTLKSDDDAQFDTVVTLEAKDIAPQVTWGTNPGQVISVNETIPNPQEMADPVQRASAEKALHYIGLEAGTNLKDIKVDQVFIGSCTNSRIEDLRAAAAVMKGRKKADNVKRILVVPGSGLVKEQAEKEGLDKIFIAAGAEWRNPGCSMCLGMNDDRLGEWERCASTSNRNFEGRQGRNGRTHLVSPAMAAAAGVFGKFVDIRDVTLN | not soluble
HMSMYAVNAGIAKTTVQILVDHIAHSGWLDEAASAVLLDIVRTPISPELKPVGQDGNISQKTEDLVGPYELHDFFIYHFLHNEYKPSKIYYLAGVAFKGIYTKAEIKKWMMVFFRRFFAQQYKRNCMPDGPKVSCISLSPRGAWRMASDASSALWLDEIAKFETD | not soluble
MGSDKIHHHHHHMIVVKPSPGSAQSIPANANGPKWDVGEAVSQLSWDDLRIIKTLSDCSNRAATAKKLGINVSTVSRRVAQVEKTLGVALFDHRKAGYLLTAEGVELRALAERVELDIVSVTRRVSRAGQGPLGKLRITTSDSLLLYFLTPIIADFKALNEGITIEVLVGNQTLSLARDESDIAVRATKKPTDTLVGRKLANIAWAAYGSVKQAAITDPFAEGQAWVSYSGGLCGLKATSYVECRVPSELISYRTDSVAAASAAIAAGLGFGFLPCMLGDITPGLVRAGPVVQELQDELWLLTHQDIRKSWRVKAFMTFCAAAVADLKPLVEGQQAIPAS | not soluble
MADNSDANGVPYYFLINMGGGFVEGEQYQVTIDVNKDAHALVTTQTPTYVYKCEKGQLTQQNTSITLEENSYLEYMADEVIPYLKSRYFQTSRIDMDKSAHLIYSDGVTAGWSHEDLPFQYHYFRNLTQIYQDNELVYSDQTLLEPEKQDMFKLGYFEGWRNYNSLVMVSPNIDEAFVKALQKHLEGLNLESDFAISSLDISGLVLRILGKTAEDNRRIIYSCADYFRQEIHGLTPLNLRKNDMRRLEHHHHHH | not soluble
MSLELPFSNQSIIPAAHNQKDMEKILELDLTYMVMLETHVAQLKALVKYAQAGGKKVLLHADLVNGLKNDDYAIDFLCTEICPDGIISTRGNAIMKAKQHKMLAIQRLFMIDSSAYNKGVALIQKVQPDCIELLPGIIPEQVQKMTQKLHIPVIAGGLIETSEQVNQVIASGAIAVTTSNKHLWEGHHHHHH | soluble
MEVKLPELGDNVTQATVVGVLVKEGDRVEPGQPLLELETDKAVVEVPAEAGGVVKRVLVKVGDEVRPGQPFLELAEAEGGAEAPPLKAEERPEAPAPKAEEAPRPAPKEAPPAPQEAPSERRLIPAAPSIRRLARELGVDLTRLRGTGLAGRITEEDVRRAAGLGEAAPAALPAAPAPRLPDFTKWGPVRREPMSGVRKATVRSMSQAWAQVPMVTHFDEADVTELEALRKQYAKKAEEKGFRLTLTAFLLKALALTLKAFPKFNASLDVEAQEIVYKDYIHIGVAVDTPHGLLVPVIRDVDRKGVLRLAEELQEISQRARERKLSPEEMQGATFSLSNLGGIGGTGFTPIVNWPEVAILGVSRSQMKPLWDPGKEAFVPRLVMPFSLTYDHRLIDGADAARFCRHLAGILEDPLGLALA | soluble
RGSHHHHHHGSMGDNIVLYYFDARGKAELIRLIFAYLGIEYTDKRFGVNGDAFVEFKNFKKEKDTPFEQVPILQIGDLILAQSQAIVRYLSKKYNICGESELNEFYADMIFCGVQDIHYKFNNTNLFKQNETTFLNEDLPKWSGYFEKLLKKNHTNNNNDKYYFVGNNLTYADLAVFNLYDDIETKYPSSLKNFPLLKAHNEFISNLPNIKNYITNRKESVY | soluble
MKLKVTVNGAGKAGEGEIPAPLAGTVSKILVKEGDTVKAGQTVLVLEAMKMETEINAPTDGKVEKVLVKERDAVQGGQGLIKIG | soluble
MPLVLDLARPVSEEELRRLSELNPGYQWERSPEGRLWVSPTGGESGRRSLQLAYQLARWNEERGLGVVFDSSTGFKFPDGSILSPDAAFVERGAWEALSEAEREGFPPLAPKAVFEVRSASQDPEELRAKMGIYLRNGVLLGVLVDPYARAVEVFRPGKPPLRLEGVERVSLDPELPGFALSLPPLW | soluble
MSLKSQNTLWKIRKIWAKFQRYTISYKQEIIGTFNPQAQMILMNHQSALDIIALEELYPKNLCWIAKKELGEIPIFKVAMKKPKLLCIDRKNPRDLVRVLKEAKERISEDRVLAIFPEGTRSKNEKMLKFQSGAKILSEKLNLKVQPILIVDSAKILDTKSFSASSGVLKIICMDLVDTNDEKWLENTRKKMQELLDQERAKLCEGHHHHHH | not soluble
MVRIRRAGLEDLPGVARVLVDTWRATYRGVVPEAFLEGLSYEGQAERWAQRLKTPTWPGRLFVAESESGEVVGFAAFGPDRASGFPGYTAELWAIYVLPTWQRKGLGRALFHEGARLLQAEGYGRMLVWVLKENPKGRGFYEHLGGVLLGEREIELGGAKLWEVAYGFDLGGHKW | soluble
MITLTGHTLTIEEMKRLLLEGEGVTACPTSMQKVAECREVVEKIVENGKVVYGITTGFGKFSDVLIQKDDVKALQHNLIQSHACGIGDPFPEEVSRGMLILRANTMLKGVSGVRPLVVNMLLEFVNRKIHPVVPQQGSLGASGDLAPLSHLALILLGEGEVFYKGKRVHAMVALTEEGLEPIELEAKEGLALINGTQAMTAQGVLSYIEAEATAYQAELIASMTIEGLQGIIDAFDENVHKARGYKEQVEVASRIRDILHDSKLTTKQGELRVQDAYSLRCIPQVHGASWQVLNYVKEKLEIEMNAATDNPLIFDGGEKVISGGNFHGQPIAFAMDFLKVGMAELANISERRIERLVNPQLNDLPPFLSPEPGLQSGAMIMQYAAASLVSENKTLAHPASVDSIPSSANQEDHVSMGTIASRHAHQIIQNVRRVLSIEMICAMQAAEYRGIENMSTVTKSFYHQGRQQVPSITNDRIFSTDIENITHWLKTNYSIKERLDVNAAL | not soluble
SNAMALGFGMKMELQQFLDALASSPEKIEFETTMAVIEDNYDFTPAAFTNGNTQNDANENNGSCKIFAFGLLNALDKEATLACFGRFYREDVLLHPENNDHQNIRNFMVTGWEGIQFETSALTAK | soluble
KKVYLIHGWGANRHAFDDLMPRLPATWPVSAVDLPGHGDAPFAQPFDIEAAADGIAAQIDTSADILGWSLGGLVALYLAARHPDKVRSLCLTASFARLTAAEDYPEGLAAPALGKMVGAFRTDYAKHIKQFLQLQLLHTPDAAEIIGRILPDLARCGTPQALQEALDAAERADARHLLDKIDVPVLLVFGGKDAITPLRMGEYLHRHLKGSRLVVMEKAAHAPFLSHAEAFAALCRDFVEG | not soluble
MGDVSAVSSSGNILLPQQDEVGGLSEALKKAVEKHKTEYSGDKKDRDYGDAFVMHKETALPLLLAAWRHGAPAKSEHHNGNVSGLHHNGKSELRIAEKLLKVTAEKSVGLISAEAKVDKSAALLSSKNRPLESVSGKKLSADLKAVESVSEVTDNATGISDDNIKALPGDNKAIAGEGVRKEGAPLARDVAPARMAAANTGKPEDKDHKKVKDVSQLPLQPTTIADLSQLTGGDEKMPLAAQSKPMMTIFPTADGVKGEDSSLTYRFQRWGNDYSVNIQARQAGEFSLIPSNTQVEHRLHDQWQNGNPQRWHLTRDDQQNPQQQQHRQQSGEEDDA | not soluble
MTLKMGRVKWFNQSEGYGFISPHDGGSDVYVNKTAIANTKNKSLNEGQDVEFSTYRSIHGPSAADVIAF | not soluble
MVKVGYIQMEPKILELDKNYSKAEKLIKEASKEGAKLVVLPELFDTGYNFESREEVFDVAQQIPEGETTTFLMELARELGLYIVAGTAEKSGNYLYNSAVVVGPRGYIGKYRKIHLFYREKVFFEPGDLGFKVFDIGFAKVGVMICFDWFFPESARTLALKGAEIIAHPANLVMPYAPRAMPIRALENRVYTITADRVGEERGLKFIGKSLIASPKAEVLSIASETEEEIGVVEIDLNLARNKRLNDMNDIFKDRREEYYFR | soluble
